In IntAct's records for PubMed 30260988:

B1: CXXC motif containing zinc binding protein (Homo sapiens), Q9NWV4 (parent)
chain: MGKIALQLKATLENITNLRPVGEDFRWYLKMKCGNCGEISDKWQYIRLMDSVALKGGRGSASMVQKCKLCARENSIEILSSTIKPYNAEDNENFKTIVEFECRGLEPVDFQPQAGFAAEGVESGTAFSDINLQEKDWTDYDEKAQESVGIYEVTHQFVKC
partner: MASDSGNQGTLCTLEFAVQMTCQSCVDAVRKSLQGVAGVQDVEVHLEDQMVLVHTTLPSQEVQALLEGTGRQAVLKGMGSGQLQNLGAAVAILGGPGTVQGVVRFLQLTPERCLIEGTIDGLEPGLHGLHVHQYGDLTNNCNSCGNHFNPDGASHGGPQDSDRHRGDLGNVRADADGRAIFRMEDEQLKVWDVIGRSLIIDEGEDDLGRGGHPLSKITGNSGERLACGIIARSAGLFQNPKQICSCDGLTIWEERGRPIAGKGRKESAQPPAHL

Assays:
ccs_human CCS, O14618 [1] = variants of: B1; settings: with ccs_human CCS
ccs_human CCS, O14618 [2] = variants of: B1; settings: with ccs_human CCS; remark: listed apart in the source

| Variant | effect of a mutation on the interaction (ccs_human CCS, O14618 [1]) | effect of a mutation on the interaction (ccs_human CCS, O14618 [2]) |
| --- | --- | --- |
| C33A;C36A | with no effect | causing an interaction |
| C67A;C70A | disrupting interaction strength | causing an interaction |
